Reference: the domain aggregation screens of Martell et al. (2025)

Assay: soluble fraction after stress (log2 fold change); higher = more stays soluble; pooled small domains, quantitative proteomics
Conditions: stress: 75 degC
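Note: 20 min heating vs room temperature control held 20 min.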

Sequence | soluble fraction (log2)
HMTDRINIGDVVTIISKDREDSQIVYMRYHKGKLSILGELILNKTKNDTVDFKGRTYDIATIEKS | -2.22
HMTDVHFIDVPVSEGHPWIGLTVKDLNLPPGTLLVFLNHPGEKSTVPNGDTVLREGDVLVLGATAYAG | -0.384
HMTDYKTNLQEFLQQDGEVEIEYKLLAEVGPSHARQFEVDVMMGDRVLGSGVGRNKKAAEQAAAKVALSKL | -0.0613
HMTDYVPTIGTKISKDFGSKGYFEGEVVSGPHNVTVEGDNMVVWKVQYEDGDREEMTASEIAHWKA | -0.104
HMTEAIDVPNLVGQNYSDVKSNSSYKFNWDIINVYDSGKPEGEIIKQEPEAGSKKVKENAVITLTVN | 0.538
HMTEDNDLETIAYDILKERNLNNININVKNGVLNIYGKTETLKEKREIEKILSSLNVSKINNLIKI | 0.258
HMTEDQDWAIFKQKLKAQTEIDLDLYKEPQMKHRIKNLIQNAGFDSYVQYFDYVYLNQDRLAAFLENLTV | -0.535
HMTEEELLERLDAVITEYKGKPGALIPVLQLAQGIFGYLPEVALKHIARQLDKPYSEVAGVVSFYSFFTT | 0.291
HMTEFDVIMKSFGSEKIKVIKEVRAITGLGLAEAKALVEGVPAKIKEQVSKDDAEALKKQLEAVGAEVEL | -0.0848
HMTEFWTGPITTVTKANFADWTLDTNQDRITANVWLTRADSKGLFNITPGKETAFDIVDYLSPLDTEWA | -0.209
HMTEGDRLARRILRLVRNKPNGYPEVELMKATVLDWNHFQRSISSLEMAGILERRDPGDGTPPVWVEKR | -1.53
HMTEKIEWYKEVLDLEPNSKIFFPLAKMLEKEGELEEARRVLAEGVSRHEEFLEARLFYISVLSRL | -0.301
HMTENLELLATGSLWTEPDGSGKIISYLIPGLRVKKLETNGIFYKIQLQNGLIGWADQSLFTIAEPK | -1.62
HMTENQKNIDLIKIVSLLVHAAKIDENYTNKEKELIINFINNFSKENKQNIKSSEILEEAEKYEK | 0.132
HMTEPKRIVDHWQPSDDVYDILRMSHIDLDFARSLLPEFIVYWKDSSQTHTSWNSKFLQHAKYHWAKRHQL | -2.27
HMTEPLTKREKEVLLLLPRGLTAKAMASELFLTEATIKSHLAAIFRKFKVVNRTQAIAIAVESKILT | -2.41
HMTESLVITVDPALHGLRLDRGLADALPDRSRSEVQRWIKEGRVQLHGAPAKPSLKLAAGDIVTIALPEE | 0.442
HMTESSTYFEKIGTEISQFKSIPKNIDVIIIEKLIYSGIIKKVDNEENSRVYYILTRKGRYFWKRYVLS | 0.16
HMTETFVLNLRQPIAAAPVLPGYRVARTDEQTLEVEVSKDQNLNEIFTALSALGVEVLSMRNK | -0.0438
HMTFAEADAQYEVIKQQYLAGALDEEQFDEQLHRLMVLDDGGLWWAKSRENGSWHYYDPDREDWIAATP | -0.394
HMTFEAKKGYINADMSVNVRETASTSATVIITLNPNTEVKVVGEENDFYKIEYKEYKGYVAKRLISDSQVQ | -0.747
HMTFPTEAKLTGDKVFVRSGPSTQSQRLTNLAINSVVTVLAREMGDMQYPWYKVRYSDGEGWVYGQYVEAI | -1.08
HMTFTQFAESHGVIIKSLKASDKIQRGPTVAHPKSDNGAWLWDGNRGGVMAWDGDGQWYWFK | -1.73
HMTGEERRMNTADLYRRRGMELFKRKIYVDAIDSLKVSLEYEDNATTRYYLDLATKRYQDLKIS | -2.13

Sequence | soluble fraction (log2)
HMTGETWAERSRALAAAGLIVMGQEAKNKIEDLPSLSPLIEAAAASETRLLTGQIIDELLAFV | -0.589
HMTGIELLSHREHQVYDLLTQGRTVTEIGAQLNLAPNTVSTYRARILEKTGTKNDVELALYAQRH | -0.22
HMTGKASEIAALLEQRIAAGDYPAGSKLPSERELAASFHVSRNTIRDAIALLAARKIVSTKWGAGTVVLG | -0.967
HMTGLRETIPAALDGERLDRVVALLGDVSRSRASAALEAERVTLDGEVVTLRSHRVREGEELTVAGFE | 0.417
HMTGLSAQILAKLRDNHGVLPVSDKSDPAVISNLFGVSKGNFKKAIGGLYKEGQIVIHADRIEL | -0.0972
HMTGLSFEEKDLLGNALKLLDETERRIVILHATSGLKHREIAKQLDIPLPTVLSKYTRAIKKLKKHME | -1.14
HMTGPSYTTRRVEAAETMMEFLRTFPQAAPFIGDLYVKAQDWPLGEEIGDRLKKMLPPQLQE | -0.698
HMTGQVASMVERLAQRLKDQPQDAEGWAMLARSYSVLGRHPEALQAYEKALALRKDDANLLADYADSLA | -0.23
HMTGRHEEAIQELKRTLELHPQKPKIFLLLGVSYLRLNNLKKAVEAFNTVLLLQPKNQKALTMLKEIKKR | -0.178
HMTGSLLVEVQGRPDADRLLGQALVDAGLTARPAGGALIEVEVRDETTPDVVRDLTVDLGLGLVRMQERH | -0.548
HMTGSLRIKHKTYYMLFSWKDESGQWRQKSESTGIPERGGKRKAQEMLNTRLEELQLQSTASL | -3.87
HMTGSLRVTSSPSGAEIYVDEIYRGYTPLTIGSLSTGRHEVRLHLSGYQDYTRTVEIESGSQSSFSVTLT | -1.46
HMTGSTSVAQVSTPSGSLNLRAYASTSARVLLQIPEYAFVTVYNRGATWSYVSYNGVSGYVMSVYLSFGG | -2.31
HMTGTVKVNSLNVYKSASLDSEVKDTLVLNTKVTIAENGQVTDGIYVWGRLQSGEGYVQMNNLTL | -0.418
HMTHRRLELTLDAIDERLDRALTAAVPELSRMQWQRLIREGLVTVDGERARPSYRIQGGETLVALVPEV | -0.448
HMTIAEGLIFRFTEPFKPIDQYTYYIMGDNKVEQIPNFKTLEVMLAQRNQNYLSVRVIEKSQLDDILKEF | -4.16
HMTIDETKKQQVKDGLKDIPGVTVEFVGDKAVLKGAVTDANRVKIMQIVMAAKVLSDASGLTSK | -0.422
HMTIDTSNDLLNQITEATSKGPISILELKDQLNVNASDIEGELRTLIDQHLVFLKDGMLQVIPFD | 0.797
HMTIEEMAIENINFSTQLLYKAMKYNGVNTVGDLLEKARSKKDLLTMAYIGNKEAEEIIEKLSELGITI | -1.63
HMTIFGWQQDETGKWYRNADGTFYENGWKEIDGAQYYFDENGYVTTGWLELDGKDYYFDEEGKYDSTKVR | -0.445
HMTIGPALAIGGNKVEMTQQGKIQVTNPQGKIKTLSQDEFKKQLVKNADKIEAGQDFEFKKD | 0.275
HMTIKLFPNPSTDFIRVSELSAKENYKIYTILGSEIKRGSVSNNETIDIRNLNSGVYLLKFDNGTTKKIVK | -1
HMTIKTAFPAEDLAKPDNFKSLLYYFGLLTIRGTKWGSTLLAIPNLTVREQLYSYLVEAYRSADL | 0.331
HMTILKEGMSGPEVERLQDALKRHGFDPGRVDGQFGPGTEAAILAFQKSEGLRADGVAGPKTQQALGLE | 0.121

Sequence | soluble fraction (log2)
HMTIRLKELRKQKGNTQAEVAKILGTNQSQYGKYENERTQLSLDNAKILSDYFGVSVPYLLGLDDNP | -0.361
HMTISDTAYQAFLEQLGVGMVVEHKRFGEGVITGMPKGKIRITFEEGTKSFQARALAESGMLK | -0.875
HMTISIAEQIFEQLEREILSGAYPRGELLTETKLSEKLGVSRTPIREALRRLDQEHIIKMTTKGAFVLGI | -2.4
HMTITIGNSDGGYMKMGADGFEVRFSGSDGGNHYAKMYYNNDGWARLTLGSYGEEKARIDSDGMIQTR | 0.108
HMTKEAIAQKLRIARQESGLTQKDVSAKIGRPQQTIASWEVGRSQPDADTLYSLLLLYKVSPNTFFEYD | -1.18
HMTKEEIVVNWLPRYTKRNLEDFGEYILLTNFNKYVEIFAEKFNVPILGRDANMISASAEGITIIN | -0.409
HMTKEEREKREKYEKLMKKAEELTAAKNHREVINVLGQAKAYATAAQLKEIEEKIKAATSEMNK | 0.326
HMTKEGVNISITADGVQLSTESPNRVSIFNVNGTKVWEGIAPANVSLQKGVYILQTANGNTKFV | 0.597
HMTKLLITNYERNVLINSYLLKNTPELDDIRRLLVHNKHISENDVSTEMARRIKKHKADWLRVT | -3.4
HMTKLTPLEVNLYAKKLANDPEFGSKHIEPGESFSQAEERLRVQLSQQEYVQKYSKYLKKLKASA | -0.198
HMTKPAEVRIDELMNAAQTLFLAKGVEATTISEIIASVGVAKGTFYHYFESKQHIVEALKKRYID | -1.85
HMTKQNVVPLMYRMIDTLEQFIKADVPFNIETRLARVERLRETMVSSSVTTSEKFRQVLEAYTIETD | -1.05
HMTKSEWLRESREHLGLSQTDLRNLLNTALNRSYDKSRISRWENSKENIPAEVVKQIESLIATR | -0.0559
HMTKTRTEILEYLKQNWSVTVSASDIKKHLEEKEIKANTTTIYRYLDKLLAEHVIIKYADAGSERAVYQYS | -2.23
HMTKVIEFLVSDEEHGVRADKAFVSHNQKLSRSYFKKLILNGNLYINNKVNLDPSYKLIKGSTVRIILPE | -2.58
HMTKVKIDRLFSIVQMLVNRKSVTAKELADYFNVSVRTIYRDIEILSANGIPIYATQGKGGGISILEN | -1.74
HMTKYEGLSLDLIIDGVVITHNLKLAKLDMNWLLDRLKENGWDNPKDIFYAYIDTAGNFRFQPKLKASRTR | 0.473
HMTKYREVLRMSAGGFSQRVIASTLSISRNTVASTLKRAREQNLDWEAVEQQRLSEKDIANLLFP | -3.22
HMTLAEEFNNLNGKVITRETLESLLVKAEKEQNSTISNRIRKVLQAYTADTFLIELQHTESA | -0.0241
HMTLALKQGSTGSTVKQVQQKLKNWGYYSGAVDGIFGSGTRKAVVLFQKRNKLTADGIVGSKTLEALGIYV | -2.36
HMTLDDSIALGRSLLDKGLMDFGTNLANLAEDKLRDFLSQQRYENLDDLFADIARGNRLPMFTAQQLLS | -0.0666
HMTLDVALSKEIKYMLKEEHYLPGDKLPSERKLAELFHVQRLTVRGALNLLLQDKTIISKPRSGYYVAPKR | -2.88
